One assay addresses T1, G-CSFR on Kasumi-1 cells (UniProt Q99062 25-836, limits assumed).
T1 sequence (looked up): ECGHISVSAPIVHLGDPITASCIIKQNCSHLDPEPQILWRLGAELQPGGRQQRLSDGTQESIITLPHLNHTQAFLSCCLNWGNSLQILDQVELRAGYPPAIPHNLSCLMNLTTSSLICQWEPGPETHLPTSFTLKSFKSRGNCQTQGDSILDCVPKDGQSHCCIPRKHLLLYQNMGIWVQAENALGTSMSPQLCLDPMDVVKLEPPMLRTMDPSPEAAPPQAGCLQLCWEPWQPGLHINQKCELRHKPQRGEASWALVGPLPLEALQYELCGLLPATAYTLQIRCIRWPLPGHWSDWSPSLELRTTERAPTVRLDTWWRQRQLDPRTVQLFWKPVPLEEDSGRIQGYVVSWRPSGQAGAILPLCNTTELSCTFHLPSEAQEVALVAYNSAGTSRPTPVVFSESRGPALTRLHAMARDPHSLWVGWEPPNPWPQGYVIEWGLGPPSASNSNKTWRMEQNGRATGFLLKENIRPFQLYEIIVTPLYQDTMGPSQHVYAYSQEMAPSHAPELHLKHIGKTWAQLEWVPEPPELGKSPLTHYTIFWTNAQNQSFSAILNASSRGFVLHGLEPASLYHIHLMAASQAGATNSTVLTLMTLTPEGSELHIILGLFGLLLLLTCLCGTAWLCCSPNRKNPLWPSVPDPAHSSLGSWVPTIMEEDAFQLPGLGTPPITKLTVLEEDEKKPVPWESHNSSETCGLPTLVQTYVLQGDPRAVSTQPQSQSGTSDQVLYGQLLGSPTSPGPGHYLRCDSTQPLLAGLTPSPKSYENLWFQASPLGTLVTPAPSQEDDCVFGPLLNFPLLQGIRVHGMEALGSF
The experiment in a line: cell-based or functional assay.

A further assay addresses T2, G-CSFR on NFS-60 cells (UniProt P40223 26-837, limits assumed).
T2 sequence (looked up): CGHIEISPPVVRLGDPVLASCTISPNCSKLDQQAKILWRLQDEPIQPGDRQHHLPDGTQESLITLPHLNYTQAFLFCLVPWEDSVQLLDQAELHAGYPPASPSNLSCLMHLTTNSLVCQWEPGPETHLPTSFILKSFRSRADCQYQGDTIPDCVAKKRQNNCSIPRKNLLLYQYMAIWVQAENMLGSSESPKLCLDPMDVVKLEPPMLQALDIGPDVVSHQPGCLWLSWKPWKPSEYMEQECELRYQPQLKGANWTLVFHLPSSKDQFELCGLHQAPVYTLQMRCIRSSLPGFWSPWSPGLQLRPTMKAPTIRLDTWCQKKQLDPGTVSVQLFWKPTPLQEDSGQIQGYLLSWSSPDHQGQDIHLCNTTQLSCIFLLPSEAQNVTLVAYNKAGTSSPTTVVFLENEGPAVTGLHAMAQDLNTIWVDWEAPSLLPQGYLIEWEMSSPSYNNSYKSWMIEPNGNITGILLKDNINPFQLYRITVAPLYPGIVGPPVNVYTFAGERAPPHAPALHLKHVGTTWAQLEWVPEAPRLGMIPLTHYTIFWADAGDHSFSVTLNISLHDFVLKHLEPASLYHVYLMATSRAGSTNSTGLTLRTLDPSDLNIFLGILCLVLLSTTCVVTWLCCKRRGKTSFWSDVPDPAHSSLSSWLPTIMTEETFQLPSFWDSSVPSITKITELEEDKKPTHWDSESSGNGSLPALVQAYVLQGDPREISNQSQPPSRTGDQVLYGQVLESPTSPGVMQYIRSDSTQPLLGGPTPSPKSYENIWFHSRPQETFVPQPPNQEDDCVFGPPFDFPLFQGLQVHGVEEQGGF
The experiment in a line: cell-based or functional assay.

Assay [1] addresses T3, Recombinant human G-CSFR (Glu25-Pro621, 381-GR/CF, R&D Systems) (human, UniProt Q99062 25-621).
T3 construct: range 25-621; Bought protein, amine-coupled to a CM5 chip for SPR; also called rhG-CSFR; granulocyte-colony stimulating factor receptor
T3 sequence (looked up): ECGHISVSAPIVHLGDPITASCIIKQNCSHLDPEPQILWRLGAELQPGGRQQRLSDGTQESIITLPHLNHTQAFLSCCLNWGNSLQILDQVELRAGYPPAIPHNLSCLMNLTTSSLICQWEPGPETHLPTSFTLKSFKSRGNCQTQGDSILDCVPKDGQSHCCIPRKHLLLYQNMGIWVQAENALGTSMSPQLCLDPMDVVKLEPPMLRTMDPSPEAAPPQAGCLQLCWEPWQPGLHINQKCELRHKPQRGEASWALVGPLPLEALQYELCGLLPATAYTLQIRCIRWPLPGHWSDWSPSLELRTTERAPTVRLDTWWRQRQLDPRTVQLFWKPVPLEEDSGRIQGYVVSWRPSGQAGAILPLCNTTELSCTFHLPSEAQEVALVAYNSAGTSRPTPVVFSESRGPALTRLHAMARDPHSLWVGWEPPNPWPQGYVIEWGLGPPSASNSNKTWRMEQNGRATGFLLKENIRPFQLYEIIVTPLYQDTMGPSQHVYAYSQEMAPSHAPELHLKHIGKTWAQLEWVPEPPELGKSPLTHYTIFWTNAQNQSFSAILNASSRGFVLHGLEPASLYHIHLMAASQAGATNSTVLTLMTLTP
The assay is described as follows: SPR, twofold dilution series from 20 nM bop3 against chip-immobilized G-CSFR (Fig. 14B); reference not named.

The target in assay [2] is T3, Recombinant human G-CSFR (Glu25-Pro621, …). The experiment in a line: SPR, Biacore X100, multi-cycle kinetics, rhG-CSFR amine-coupled to CM5 chip, design as analyte, 1:1 model; series of Fig. 15C (from 20 nM).
For assay [3] the target is unchanged. The assay is described as follows: SPR, rhG-CSFR on CM5 chip (Fig. 3E).
The target is the same in assay [4]. The experiment in a line: SPR, Biacore X100, multi-cycle kinetics, rhG-CSFR amine-coupled to CM5 chip, design as analyte, 1:1 model; series of Fig. 6 (from 20 nM). On the technique in general: Surface plasmon resonance follows binding to a sensor surface in real time, without labels.
The target is the same in assay [5]. The experiment in a line: not stated in the sentence (SPR values of Table 2 agree).
Assay [6] shares this target. The assay is described as follows: SPR, Biacore X100, multi-cycle kinetics, rhG-CSFR amine-coupled to CM5 chip, design as analyte, 1:1 model; series of Fig. 13 (from 125 nM).
The target is the same in assay [7]. The assay is described as follows: SPR, Biacore X100, multi-cycle kinetics, rhG-CSFR amine-coupled to CM5 chip, design as analyte, 1:1 model; series of Fig. 13 (from 31 nM).

B1: bop3 (designed binder)
chain: MAALDAALYEIYDGLILYQQRLKSLEGISPELGPALDALRYDMADFAYLMAQAMEEGLDSLPQRFLWKALEMIRKIQADAAALREKLAATYKGNDRAAAAQSIARKLEEMLEKAYQILRHLAAA
notes: exclusively monomeric by SEC; Expressed from pET28a downstream of an N-terminal His-tag and thrombin cleavage site
In the case of B1, the “IC50, Kasumi-1 competitive inhibition assay, 400 pg/mL rhG-CSF” value with G-CSFR on Kasumi-1 cells amounted to 1.97 nM. For the same molecule, in the assay with G-CSFR on NFS-60 cells, the “fold improvement in inhibitory potency compared to bop1, NFS-60 competitive inhibition assay” value was found to be 3 fold. Besides, the “fold improvement in the receptor-binding affinity” value in assay [1] came to 10 fold. Further, in assay [2], the Kd (as a rule, the constant that tells how readily two partners part at equilibrium) stood at 1.2 nM; the koff (usually a measure of how fast the partners let go of each other) came to 0.0018 s⁻¹; the kon (as a rule, a measure of how fast the partners come together) was found to be 1.5e+06 M⁻¹ s⁻¹.

B2: bop2 (designed binder)
chain: MAALDAALYDIYDGLILYQQQLESLEGISPELGPALDALRYDMADFAILMAQAMEEGLDSLPQSFLRKALEMIRKIQADAAALREKLAATYKGNDRAAAAQSIARKLEEMLRKAYQDLRHLAAA
notes: Strictly monomeric in solution; Expressed from pET28a downstream of an N-terminal His-tag and thrombin cleavage site; also called bivalent-orientation parallel design 2
For B2, the “fold tighter binding than bv6” value in [3] came to 4 fold. In assay [4], the Kd turned out to be 0.85 nM, the koff was 0.0013 s⁻¹ and the kon is 1.9e+06 M⁻¹ s⁻¹.

B3: bv6 (designed binder)
chain: MAALAAALAEIYKGLAEYQARLKSLEGISPELGPALDALRYDMADFAILMAQAMEEGLDSLPQSFLRKALEMIRKIQADAAALREKLAATYKGNDRAAAAVEIAAQLEAFLEKAYQILRHLAAA
notes: Expressed from pET28a downstream of an N-terminal His-tag and thrombin cleavage site; Minorly dimeric in solution; also called starting template
Take B3: the “fold tighter binding than Boskar4” value in assay [5] turned out to be 12 fold. In assay [4], the Kd came out at 4.3 nM, the koff was 0.0051 s⁻¹ and the kon was determined as 1.2e+06 M⁻¹ s⁻¹. In assay [6], the Kd worked out at 14 nM, the koff came to 0.0033 s⁻¹ and the kon turned out to be 240000 M⁻¹ s⁻¹.

B4: bv23 (designed binder)
chain: MAALAAALAEIYKGLAEYQARLKSLEGISPELGPALDALRYDMADFAYLMAQAMEEGLDSLPQSFLWKALEMIRWIQADAAALREKLAATYKGNDRAAAAVEIAAQLEAFLEKAYQILRHLAAA
notes: Expressed from pET28a with N-terminal His-tag and thrombin cleavage site; also called Boskar4 variant bv23
On to B4, for which, in assay [7], the Kd was found to be 1.8 nM, the koff was 0.0015 s⁻¹ and the kon came to 860000 M⁻¹ s⁻¹.

B5: bv21 (designed binder)
chain: MAALAAALAEIYKGLAEYQARLKSLEGISPELGPALDALRWDMADFAYLMAQAMEEGLDSLPQRFLWKALEMIRKIQADAAALREKLAATYKGNDRAAAAVEIAAQLEAFLEKAYQILRHLAAA
notes: Expressed from pET28a with N-terminal His-tag and thrombin cleavage site; also called Boskar4 variant bv21
Regarding B5, in assay [7], the Kd stood at 1.4 nM, the koff came out at 0.0011 s⁻¹ and the kon is 820000 M⁻¹ s⁻¹.

B6: bv24 (designed binder)
chain: MAALAAALAEIYKGLAEYQARLKSLEGISPELGPALDALRWDMADFACLMAQAMEEGLDSLPQRFLWKALEMIRKIQADAAALREKLAATYKGNDRAAAAVEIAAQLEAFLEKAYQILRHLAAA
notes: Expressed from pET28a with N-terminal His-tag and thrombin cleavage site; also called Boskar4 variant bv24
On to B6, for which, in [7], the Kd turned out to be 1.7 nM, the koff turned out to be 0.0017 s⁻¹ and the kon was 1e+06 M⁻¹ s⁻¹.

B7: boa1 (designed binder)
chain: MAALAAALQSIYRKLAEMQAKLKSLEGISPELGPALDALRYDMADFAILMAQAMEEGLDSLPQSFLRKALEMIRKIQADAAALREKLAATYKGNDRADAAVYIAADLEILLEQAYQILRHLAAA
notes: Strictly monomeric in solution; Expressed from pET28a downstream of an N-terminal His-tag and thrombin cleavage site; also called bivalent-orientation antiparallel design 1
Take B7: in assay [4], the Kd amounted to 3.7 nM, the koff worked out at 0.0024 s⁻¹ and the kon was determined as 690000 M⁻¹ s⁻¹.

B8: bop1 (designed binder)
chain: MAALDAALYEIYDGLILYQQRLKSLEGISPELGPALDALRYDMADFAILMAQAMEEGLDSLPQSFLRKALEMIRKIQADAAALREKLAATYKGNDRAAAAQSIARKLEEMLEKAYQILRHLAAA
notes: De novo four-helix bundle, strictly monomeric in solution; Expressed from pET28a downstream of an N-terminal His-tag and thrombin cleavage site; also called bivalent-orientation parallel design 1
Take B8: in [4], the Kd came out at 2.7 nM, the koff was 0.0022 s⁻¹ and the kon amounted to 880000 M⁻¹ s⁻¹. Further, in [2], the Kd was determined as 3.2 nM, the koff amounted to 0.0063 s⁻¹ and the kon turned out to be 2e+06 M⁻¹ s⁻¹.

B9: bv22 (designed binder)
chain: MAALAAALAEIYKGLAEYQARLKSLEGISPELGPALDALRYDMADFAYLMAQAMEEGLDSLPQRFLWKALEMIRKIQADAAALREKLAATYKGNDRAAAAVEIAAQLEAFLEKAYQILRHLAAA
notes: Expressed from pET28a with N-terminal His-tag and thrombin cleavage site; also called Boskar4 variant bv22; second-generation variant
B9: in [7], the Kd was 1.1 nM, the koff worked out at 0.00092 s⁻¹ and the kon worked out at 880000 M⁻¹ s⁻¹. In assay [2], the Kd worked out at 1.3 nM, the koff turned out to be 0.0018 s⁻¹ and the kon was found to be 1.4e+06 M⁻¹ s⁻¹.

B10: boa2 (designed binder)
chain: MAALAAALQSIYRKLAEMQRKLKSLEGISPELGPALDALRYDMADFAILMAQAMEEGLDSLPQSFLRKALEMIRKIQADAAALREKLAATYKGNDRADAAVYDAADLEILLEQAYEILRHLAAA
notes: Strictly monomeric in solution; Expressed from pET28a downstream of an N-terminal His-tag and thrombin cleavage site; also called bivalent-orientation antiparallel design 2
On to B10, for which the “fold tighter binding than bv6” value in [3] amounted to 4 fold. For the same molecule, in [4], the equilibrium dissociation constant (Kd) was determined as 1.1 nM, the koff was 0.0013 s⁻¹ and the kon amounted to 1.4e+06 M⁻¹ s⁻¹.

The values are drawn from patent EP4670784A1 (Eberhard Karls Universität Tübingen (Medizinische Fakultät), dated 2025).
